Read-outs that look alike come from different tables or passages of the source. Ends that are not written are not given here. * marks the point of attachment. Biotin = O=C1N[C@H]2[C@H](CS[C@H]2CCCCC(=O)*)N1
T1: human Fn14 (human, UniProt Q9NP84 28-129)
T1 sequence: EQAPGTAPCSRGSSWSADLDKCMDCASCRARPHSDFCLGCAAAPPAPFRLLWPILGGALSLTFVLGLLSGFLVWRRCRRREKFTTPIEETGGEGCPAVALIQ

T2: synthetic peptide hFn14 sub-domain 1p (human, biotin on the added C-terminal lysine)
T2 construct: synthesised by GLBiochem
T2 peptide: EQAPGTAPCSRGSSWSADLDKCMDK

T3: synthetic peptide hFn14 sub-domain 2 (human, biotin on the added C-terminal lysine; disulfide bonds as in the solution structure of He et al. 2009)
T3 construct: also called sub-domain 2 peptide
T3 peptide: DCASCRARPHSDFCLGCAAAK

T4: synthetic peptide hFn14 sub-domain 3 (human, cysteine pairing not given here)
T4 construct: also called sub-domain 3 peptide
T4 peptide: ASCRARPHSDFCLGK(Biotin)

T5: Histidine tagged mouse Fn14 extracellular domain (mouse, UniProt Q9CR75 28-80)
T5 construct: extracellular domain; also called mFn14; not shown: (His)6 tag from pET-15b
T5 sequence (looked up): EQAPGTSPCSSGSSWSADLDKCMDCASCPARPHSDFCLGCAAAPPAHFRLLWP

T6: synthetic peptide Sub-domain 2 Cys 3&6 ΔS (human, not fully specified; biotin on the added C-terminal lysine)
T6 construct: also called sub-domain 2 cys3&6ΔS mutant
T6 peptide: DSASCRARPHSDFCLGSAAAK


How the values were obtained:
human Fn14 [1] = target: T1, human Fn14; assay: cell-based or functional assay
human Fn14 [2] = target: T1, human Fn14; assay: cell-based or functional assay; remark: listed apart in the source
[3] = target: T2, synthetic peptide hFn14 sub-domain 1p; assay: ELISA on biotinylated synthetic peptide
Experimental: (§1) Peptides representing sub-domains 1p, 2 and 3 of hFn14 (FIG. 20, Panels B and C and FIG. 14, Panel A) and for disulfide pair mutants (Cys3&6ΔS and Cys4&5ΔS; FIG. 20 Panels D and E) were synthesized by GLBiochem Ltd. (Shanghai, China) and the cysteine residues for disulfide bonds were chosen as described in the solution structure by He et al., (2009). An additional lysine residue was added to the C-terminus in order to attach a biotin moiety and to enable the peptides to bind to neutravidin coated plates (Pre-blocked; Pierce). For these experiments, a control peptide with a biotin at the C-terminus was used as a negative control and isotype control antibodies were also used.
(§2) The ELISA was performed essentially according to the manufacturer's recommended protocol (Pierce). Briefly, peptide was coated onto wells (in duplicate) at 1-10 μg/ml for 2 hours at room temperature. Wells were washed in PBS/0.05% Tween 20/0.1% BSA 3 times and dilutions of each antibody were added in wash buffer for 1 hour with gentle agitation. After another three washes anti-mouse HRP-conjugated to horse radish peroxidase (HRP; Chemicon) was added at 1/1000 dilution for 1 hour shaking. Finally, after 4 further washes the plate was developed using TMB (3,3′,5,5′-tetramethylbenzidine) substrate (Pierce), and the reaction was stopped using 2M H2SO4 solution. Optical density at 450 nm was quantified using a Spectromax absorbance spectrophotometer.

[4] = target: T3, synthetic peptide hFn14 sub-domain 2; assay: ELISA on biotinylated sub-domain 2 peptide, mAb at 5 ng/ml
Excerpt: FIG. 21B is a graphical representation showing reactivity of anti-Fn14 mAbs CRCBT-06-001, CRCBT-06-002, CRCBT-06-003, CRCBT-06-004, CRCBT-06-005, CRCBT-06-006, CRCBT-06-007 and ITEM-1 with a synthetic peptide representing sub-domain 2 of Fn14. Plates were coated with sub-domain 2 peptide and various dilutions of antibody were allowed to bind, bound antibody was detected with anti-mouse HRP and TMB substrate. The average of duplicate readings are plotted, error bars represent standard deviations. The ELISA was repeated to ensure consistent results. The vertical line at 5 ng/ml within the linear part of the curves is the point at which a comparison of the reactivity of each mAb was analyzed.
as §1
as §2, with “Finally, after 4 further washes the plate was developed using TMB (3,3′,5,5′-tetramethylbenzidine) substrate (Pierce), and the reaction was stopped using 2M H2SO4 solution.” left out

[5] = target: T4, synthetic peptide hFn14 sub-domain 3; assay: ELISA on biotinylated sub-domain 3 peptide, mAb at 0.2 ug/ml
Experimental: An additional lysine residue was added to the C-terminus in order to attach a biotin moiety and to enable the peptides to bind to neutravidin coated plates (Pre-blocked; Pierce). For these experiments, a control peptide with a biotin at the C-terminus was used as a negative control and isotype control antibodies were also used.
as §2
The reactivity of CRCBT-06-001 CRCBT-06-002, CRCBT-06-003, CRCBT-06-004, CRCBT-06-005, CRCBT-06-006 and CRCBT-06-007 with sub-domain 3 was lower than for sub-domain 2, indicating this region may be a partial epitope for these antibodies. However, the differences in binding to this region could reveal subtle variations in the contact regions of the antibodies with hFn14. The order of binding from strongest to weakest was CRCBT-06-005, CRCBT-06-002, CRCBT-06-001, CRCBT-06-006, CRCBT-06-007 and ITEM-1. The relative binding of each antibody to sub-domain 3 at a single point in the linear region of the curves was measured at 0.2 µg/ml (FIG. 21C). […] This could indicate the epitope of ITEM-1 may differ slightly to the CRCBT antibodies based on weaker interaction with surface exposed residues in sub-domain 3.

[6] = target: T7, phage-displayed hFn14 extracellular domain (human, UniProt Q9NP84 28-77); assay: phage ELISA, antibody on plate, 10-fold phage dilutions
T7 construct: also called FN14 Ectodomain; FN14 Ecto
Experimental: Each normalized preparation was 10-fold serially diluted and added in solution to the MAbs attached to the solid phase. ELISAs shown here were performed simultaneously with the same preparations of phage. Binding was detected using HRP-conjugated anti-M13 phage polyclonal IgG and TMB substrate. Optical density at 450 nm was quantified using a Spectramax spectrophotometer. Error bars for each dilution represent the standard deviation of duplicate assays. […] ELISAs were performed under similar conditions to those described for Panel A. Methods according to Epitope mapping using phage expressed Fn14—Method 1.
The wells of Maxisorp immunoplates (Nunc) were coated overnight at 4° C. with the target monoclonal antibodies or recombinant Tweak-Fc at a concentration of 2 μg/mL in PBS. MAb 5G8 was used as a negative control for ELISA plates coated with tested antibodies. Recombinant Fc alone was used as a negative control for ELISA plates coated with recombinant Tweak-Fc. […] 10-fold serial dilutions of phage were made using 5% skim milk/PBS solution in 2 ml-well microtiter plates and phage dilutions were added to the coated, blocked ELISA plates for 1 hr, with vigorous shaking at room temperature. Phage were subsequently removed from the wells and the ELISA plates were washed 4× with PBS/0.05% Tween 20. […]

[7] = target: T8, Histidine tagged hFn14 extracellular domain, bacterially expressed (human, UniProt Q9NP84 28-77); assay: ELISA on coated His-tagged protein
T8 construct: also called recombinant Fn14; recombinant human Fn14; not shown: (His)6 tag from pET-15b

[8] = target: T7, phage-displayed hFn14 extracellular …; assay: phage ELISA, antibody on plate, 10-fold phage dilutions; remark: listed apart in the source
Experimental: Each normalized preparation was 10-fold serially diluted and added in solution to the MAbs attached to the solid phase. All ELISAs shown were performed simultaneously with the same preparations of phage. Binding was detected using HRP-conjugated anti-M13 phage polyclonal IgG and TMB substrate. Optical density at 450 nm was quantified using a Spectramax spectrophotometer. Error bars for each dilution represent the standard deviation of duplicate assays. In this figure, reference to “FN14 Ecto” is a reference to the extracellular domain of hFn14. Methods according to Epitope mapping using phage expressed Fn14—Method 1.
The wells of Maxisorp immunoplates (Nunc) were coated overnight at 4° C. with the target monoclonal antibodies or recombinant Tweak-Fc at a concentration of 2 μg/mL in PBS. MAb 5G8 was used as a negative control for ELISA plates coated with tested antibodies. Recombinant Fc alone was used as a negative control for ELISA plates coated with recombinant Tweak-Fc. […] 10-fold serial dilutions of phage were made using 5% skim milk/PBS solution in 2 ml-well microtiter plates and phage dilutions were added to the coated, blocked ELISA plates for 1 hr, with vigorous shaking at room temperature. […] Optical density at 450 nm was quantified using a Spectramax absorbance spectrophotometer.

[9] = target: T5, Histidine tagged mouse Fn14 …; assay: ELISA with purified His-tagged mouse Fn14; x axis 'Log (c)' without unit, µg/ml by the legend
[10] = target: T9, His tagged hFn14 extracellular region mutant R56P (human, UniProt Q9NP84 28-77); assay: ELISA with purified His-tagged hFn14 R56P; x axis 'Log (c)' without unit, µg/ml by the legend
T9 construct: also called R56P mutant; not shown: (His)6 tag

[11] = target: T10, His tagged hFn14 extracellular region mutant R56A (human, UniProt Q9NP84 28-77); assay: ELISA with purified His-tagged hFn14 R56A; x axis 'Log (c)' without unit, µg/ml by the legend
T10 construct: not shown: (His)6 tag

[12] = target: T11, His tagged hFn14 extracellular region mutant R56K (human, UniProt Q9NP84 28-77); assay: ELISA with purified His-tagged hFn14 R56K; x axis 'Log (c)' without unit, µg/ml by the legend
T11 construct: not shown: (His)6 tag

[13] = target: T6, synthetic peptide Sub-domain 2 Cys 3&6 …; assay: peptide ELISA: biotinylated synthetic peptide on neutravidin plate, antibody titrated (legend: 0.1-0.0001 µg/ml; axis 'Log (c)'), anti-mouse HRP, TMB, OD 450 nm

Row | NFκB-GFP reporter in HEK293T cells (human Fn14 [1]) [µg/mL] | % Agonist, IL-8 secretion by A375 cells (human Fn14 [2]) [%] | % Antagonist, IL-8 secretion by A375 cells (human Fn14 [2]) [%] | binding result [3] | % decrease in binding compared to CRCBT-06-001 and CRCBT-06-002 [4] [%] | % decrease in binding compared with CRCBT-06-005 [5] [%] | binding result [6] | binding result [7] | binding result [8] | binding result [9] | binding result [10] | binding result [11] | binding result [12] | binding result [13] | Binder
1 | 1 | 16 | 89 | no binding | 48 | 73 | binds | – | – | – | – | – | – | – | CRCBT-06-007 (antibody, IgG2b, V domains shown) VH: QVKLEESGGVLVQPGGSMKLSCIASGFSFSKYWMNWVRQSPEKGLEWVAEIRVKSNNYATHYAESVKGRFIISRDDSKSSVYLQMNNLRAEDTGIYYCTKSYADYFDYWGQGTTLTVSS VL: DIVMTQSTASLAVSLGQRATISCRASQSVSTSSYSYMHWYQQKPGQPPKVLIKYASNLESGVPARFSGSGSGTDFTLNIHPVEEEDAATYYCQHSWEIPYTFGGGTKLEIKR
2 | 1 | 26 | 92 | no binding | 40 | – | – | binds | binds | binds | binds | binds | binds | binds | CRCBT-06-005 (antibody, IgG2b, V domains shown) VH: QVQLQESGGGLVQPGGSMKLSCVASGFTFSYYWMNWVRQSPEQGLEWIAEIRLQSNDYPTHYAESVKGRFTISRDDSKNSVYLQMNNLRPEDTGIYYCACRYADYFDHWGQGTTLTVSS VL: DIVLTQTTASLTVSLGQRATISCRASQSVSTSTYSYMHWYQQTPGQPPTVLIKYASSLESGVPTRFSGSGSGTDFTLNIHPVEEEDTATYYCQHSWEIPYTFGGGTKLEIKR
3 | 1 | 106 | – | no binding | 76 | 73 | – | – | binds | – | – | – | – | – | CRCBT-06-006 (antibody, IgG2a, V domains shown) VH: QVQLQESGGGLVQPGGSMKLSCVASGFTFSYYWMNWVRQSPEQGLEWIAEIRLQSNDYPTHYAESVKGRFTISRDDSKNSVYLQMNNLRPEDTGIYYCACRYADYFDHWGQGTTLTVSS VL: DIVITQSPASLTVSLGQRATISCRASQSVSTSTYSYMHWYQQTPGQPPTVLIKYASSLESGVPTRFSGSGSGTDFTLNIHPVEEEDTATYYCQHSWEIPYTFGGGTKLEIKR
